The record followed here is paper PMC3513293 (PLoS ONE, 2012).

In data set [1] the target is T1, p97/Valosin-containing protein (VCP), full length (UniProt P55072 1-806).
T1 construct: Homohexamer by gel filtration and DLS; also called p97/VCP; full length p97; source: E. coli Rosetta DE3, purified (nickel IMAC, Superose 6 gel filtration; hexameric 13.5 ml fraction)
The experiment in a line: SPR; Biacore 3000; p97/VCP immobilised on CM5 by amine coupling; two-fold dilution series of p47 (from 1.92 μM) or UN (from 1.88 μM) injected at 30 μl/min, 25°C, PBS with 5 mM β-mercaptoethanol and 0.005% p20; no nucleotide; Langmuir 1:1 fit (p47) or Interaction Map Analysis (UN). The following applies: both partners purified. For orientation: In SPR one partner is held on a chip, and binding of the other changes the refractive index at the surface.

Data set [2] deals with T1, p97/Valosin-containing protein (VCP), …. The experiment in a line: SPR; Biacore 3000; p47 immobilised on CM5 by amine coupling; p97/VCP injected, 30 μl/min, 25°C, PBS; Langmuir 1:1 fit. The following applies: both partners purified.
Data set [3] deals with the molecule itself. Put plainly: SEC; Superose 6 10/300 GL in PBS with 5 mM β-mercaptoethanol and 0.005% p20; calibrated with thyroglobulin, ferritin, lactate dehydrogenase and BSA. For orientation: Size exclusion chromatography separates by hydrodynamic size, large species first.

T1 sequence (P55072 whole entry): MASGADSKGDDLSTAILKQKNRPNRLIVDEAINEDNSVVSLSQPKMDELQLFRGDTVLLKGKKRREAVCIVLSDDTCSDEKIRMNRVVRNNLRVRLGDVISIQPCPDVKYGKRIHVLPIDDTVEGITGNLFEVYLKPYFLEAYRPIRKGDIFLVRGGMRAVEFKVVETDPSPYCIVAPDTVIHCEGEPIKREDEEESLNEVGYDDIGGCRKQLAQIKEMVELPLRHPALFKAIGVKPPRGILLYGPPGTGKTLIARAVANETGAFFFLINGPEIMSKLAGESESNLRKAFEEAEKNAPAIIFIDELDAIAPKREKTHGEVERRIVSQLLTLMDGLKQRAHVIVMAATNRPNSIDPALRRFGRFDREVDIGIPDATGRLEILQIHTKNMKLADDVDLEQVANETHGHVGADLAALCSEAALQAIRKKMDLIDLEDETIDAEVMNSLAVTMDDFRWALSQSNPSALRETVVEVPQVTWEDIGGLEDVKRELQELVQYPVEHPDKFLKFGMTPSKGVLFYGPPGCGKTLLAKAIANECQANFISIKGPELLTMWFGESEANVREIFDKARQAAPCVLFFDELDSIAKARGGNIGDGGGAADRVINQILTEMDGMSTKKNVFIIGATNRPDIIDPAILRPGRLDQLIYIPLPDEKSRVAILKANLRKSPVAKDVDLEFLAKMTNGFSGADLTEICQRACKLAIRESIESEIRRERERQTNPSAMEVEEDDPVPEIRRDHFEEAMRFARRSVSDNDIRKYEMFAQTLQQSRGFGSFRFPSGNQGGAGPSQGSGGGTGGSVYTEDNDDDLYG

B1: p47 (natural protein, UniProt O35987 1-370, looked up)
chain: MAEERQDALREFVAVTGAEEDRARFFLESAGWDLQIALASFYEDGGDEDIVTISQATPSSVSRGTAPSDNRVTSFRDLIHDQDEEEEEEEGQRFYAGGSERSGQQIVGPPRKKSPNELVDDLFKGAKEHGAVAVERVTKSPGETSKPRPFAGGGYRLGAAPEEESAYVAGERRRHSGQDVHVVLKLWKTGFSLDNGDLRSYQDPSNAQFLESIRRGEVPAELRRLAHGGQVNLDMEDHRDEDFVKPKGAFKAFTGEGQKLGSTAPQVLNTSSPAQQAENEAKASSSILINEAEPTTNIQIRLADGGRLVQKFNHSHRISDIRLFIVDARPAMAATSFVLMTTFPNKELADENQTLKEANLLNAVIVQRLT
notes: p47, adaptor protein of p97/VCP; Homotrimer by gel filtration; the printed list of Addgene numbers (17229,21266,21267,21268) has one number more than the three plasmids named, so 21268 may be p47; source: E. coli Rosetta DE3, purified (nickel IMAC, Superose 6 gel filtration; 16.25 ml fraction)
One may read the Kd as a measure of binding affinity in units of concentration. A higher Kd goes with a looser complex. What is called stoichiometry N is a count of units in the complex or per binding partner. Turning to B1, the values for the dissociation constant (Kd) in data set [1] and in data set [2] were approximately 5000 nM and 31.3 nM, respectively. For the same molecule, the “stoichiometry N” value in data set [3] was 3.
